From PMC7261193, “The ancillary N-terminal region of the yeast AP-1 transcription factor Yap8 contributes to its DNA binding specificity”

Key:
Conditions in all cases: protein: recombinant; tags: GST (N-term); chain copies: 2; label: 5' FAM; blunt
GST-Yap8-N20A = target: T1, GST-Yap8-N20A (Saccharomyces cerevisiae, UniProt Q06596 1-294, N20A); test: fluorescence anisotropy; series a; FA: 10 mM Tris-HCl pH 8, 50 mM NaCl, 0.5% NP-40, 1 mM DTT, 5% glycerol, 1 nM DNA, 25C (half volume protein elution buffer). Biotin EMSA: LightShift 1x buffer, 50 ng poly(dI-dC), 2.5% glycerol, 0.05% NP-40, 5 mM MgCl2, 20 fmol probe, RT 20 min. 32P EMSA: 10 mM Tris-HCl pH 8.0, 50 mM NaCl, 1 mM DTT, 0.05% NP-40, 100 ng poly(dI-dC), 6% glycerol, 4C 30 min
T1 sequence: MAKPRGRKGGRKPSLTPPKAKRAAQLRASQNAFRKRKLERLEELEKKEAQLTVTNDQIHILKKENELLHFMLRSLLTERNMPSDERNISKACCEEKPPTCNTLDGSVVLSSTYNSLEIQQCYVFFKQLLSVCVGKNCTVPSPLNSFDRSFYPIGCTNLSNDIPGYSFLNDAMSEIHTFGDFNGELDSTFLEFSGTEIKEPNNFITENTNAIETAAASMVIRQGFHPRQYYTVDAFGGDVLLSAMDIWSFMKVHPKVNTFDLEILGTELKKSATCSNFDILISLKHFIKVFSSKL

GST-Yap8 WT [1] = target: T2, GST-Yap8 WT (Saccharomyces cerevisiae, UniProt Q06596 1-294); test: as above
T2 sequence: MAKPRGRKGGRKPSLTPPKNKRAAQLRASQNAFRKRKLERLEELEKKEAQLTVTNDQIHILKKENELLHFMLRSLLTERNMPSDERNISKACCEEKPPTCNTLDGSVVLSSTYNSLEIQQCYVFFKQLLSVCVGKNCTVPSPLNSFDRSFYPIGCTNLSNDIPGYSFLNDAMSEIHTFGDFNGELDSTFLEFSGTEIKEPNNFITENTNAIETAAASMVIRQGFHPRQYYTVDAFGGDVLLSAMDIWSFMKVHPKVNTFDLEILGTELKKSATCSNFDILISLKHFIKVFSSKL

GST-Yap8-R7A = target: T3, GST-Yap8-R7A (Saccharomyces cerevisiae, UniProt Q06596 1-294, R7A); test: fluorescence anisotropy; series b; FA: 10 mM Tris-HCl pH 8, 50 mM NaCl, 0.5% NP-40, 1 mM DTT, 5% glycerol, 1 nM DNA, 25C (half volume protein elution buffer). Biotin EMSA: LightShift 1x buffer, 50 ng poly(dI-dC), 2.5% glycerol, 0.05% NP-40, 5 mM MgCl2, 20 fmol probe, RT 20 min. 32P EMSA: 10 mM Tris-HCl pH 8.0, 50 mM NaCl, 1 mM DTT, 0.05% NP-40, 100 ng poly(dI-dC), 6% glycerol, 4C 30 min
T3 sequence: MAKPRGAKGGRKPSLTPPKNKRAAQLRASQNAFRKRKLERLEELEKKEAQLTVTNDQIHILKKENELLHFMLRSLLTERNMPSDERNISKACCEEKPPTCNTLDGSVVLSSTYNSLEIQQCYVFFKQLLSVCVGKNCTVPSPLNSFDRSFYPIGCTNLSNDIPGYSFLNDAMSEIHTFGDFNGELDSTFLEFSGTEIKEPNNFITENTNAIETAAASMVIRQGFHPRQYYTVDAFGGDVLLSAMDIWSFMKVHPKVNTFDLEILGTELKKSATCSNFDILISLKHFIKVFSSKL

GST-Yap8 WT [2] = target: T2, GST-Yap8 WT; test: as above
GST-Yap8-R11A = target: T4, GST-Yap8-R11A (Saccharomyces cerevisiae, UniProt Q06596 1-294, R11A); test: as above
T4 sequence: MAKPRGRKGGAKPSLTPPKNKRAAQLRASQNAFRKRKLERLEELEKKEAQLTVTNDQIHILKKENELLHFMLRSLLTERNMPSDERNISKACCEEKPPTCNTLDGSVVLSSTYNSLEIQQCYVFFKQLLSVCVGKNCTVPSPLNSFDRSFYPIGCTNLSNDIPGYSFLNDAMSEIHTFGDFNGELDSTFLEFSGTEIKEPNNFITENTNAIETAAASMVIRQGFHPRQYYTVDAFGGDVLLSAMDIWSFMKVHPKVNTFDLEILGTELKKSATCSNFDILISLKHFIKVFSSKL

GST-Yap8 WT [3] = target: T2, GST-Yap8 WT; test: fluorescence anisotropy; series c; FA: 10 mM Tris-HCl pH 8, 50 mM NaCl, 0.5% NP-40, 1 mM DTT, 5% glycerol, 1 nM DNA, 25C (half volume protein elution buffer). Biotin EMSA: LightShift 1x buffer, 50 ng poly(dI-dC), 2.5% glycerol, 0.05% NP-40, 5 mM MgCl2, 20 fmol probe, RT 20 min. 32P EMSA: 10 mM Tris-HCl pH 8.0, 50 mM NaCl, 1 mM DTT, 0.05% NP-40, 100 ng poly(dI-dC), 6% glycerol, 4C 30 min

B1: ACR3-WT (FAM) (dsDNA)
DNA 1: CTTTTTGTTTGATTAATAATCAACTTTAGCG
DNA 2: CGCTAAAGTTGATTATTAATCAAACAAAAAG
With B1 the Kd (GST-Yap8-N20A) was 25.5 ± 4.3 nM, the Kd (GST-Yap8 WT [1]) was 9.9 ± 1.4 nM and the Kd (GST-Yap8-R7A) was 13.4 ± 1.7 nM. For the same binder, the Kd (GST-Yap8 WT [2]) was 10.8 ± 1.7 nM, the Kd (GST-Yap8-R11A) was 18.9 ± 2.9 nM and the Kd (GST-Yap8 WT [3]) was 10.8 ± 3.5 nM.
